Sequences and labels used below:
B1: Ligand of Numb protein X 2 (Homo sapiens), Q8N448 (parent)
chain: MGTTSDEMVSVEQTSSSSLNPLCFECGQQHWTRENHLYNYQNEVDDDLVCHICLQPLLQPLDTPCGHTFCYKCLRNFLQEKDFCPLDRKRLHFKLCKKSSILVHKLLDKLLVLCPFSSVCKDVMQRCDLEAHLKNRCPGASHRRVALERRKTSRTQAEIENENGPTLLDPAGTLSPEADCLGTGAVPVERHLTSASLSTWSEEPGLDNPAFEESAGADTTQQPLSLPEGEITTIEIHRSNPYIQLGISIVGGNETPLINIVIQEVYRDGVIARDGRLLAGDQILQVNNYNISNVSHNYARAVLSQPCNTLHLTVLRERRFGNRAHNHSDSNSPREEIFQVALHKRDSGEQLGIKLVRRTDEPGVFILDLLEGGLAAQDGRLSSNDRVLAINGHDLKYGTPELAAQIIQASGERVNLTIARPGKPQPGNTIREAGNHSSSSQHHTPPPYYSRPSSHKDLTQCVTCQEKHITVKKEPHESLGMTVAGGRGSKSGELPIFVTSVPPHGCLARDGRIKRGDVLLNINGIDLTNLSHSEAVAMLKASAASPAVALKALEVQIVEEATQNAEEQPSTFSENEYDASWSPSWVMWLGLPSTLHSCHDIVLRRSYLGSWGFSIVGGYEENHTNQPFFIKTIVLGTPAYYDGRLKCGDMIVAVNGLSTVGMSHSALVPMLKEQRNKVTLTVICWPGSLV
partner: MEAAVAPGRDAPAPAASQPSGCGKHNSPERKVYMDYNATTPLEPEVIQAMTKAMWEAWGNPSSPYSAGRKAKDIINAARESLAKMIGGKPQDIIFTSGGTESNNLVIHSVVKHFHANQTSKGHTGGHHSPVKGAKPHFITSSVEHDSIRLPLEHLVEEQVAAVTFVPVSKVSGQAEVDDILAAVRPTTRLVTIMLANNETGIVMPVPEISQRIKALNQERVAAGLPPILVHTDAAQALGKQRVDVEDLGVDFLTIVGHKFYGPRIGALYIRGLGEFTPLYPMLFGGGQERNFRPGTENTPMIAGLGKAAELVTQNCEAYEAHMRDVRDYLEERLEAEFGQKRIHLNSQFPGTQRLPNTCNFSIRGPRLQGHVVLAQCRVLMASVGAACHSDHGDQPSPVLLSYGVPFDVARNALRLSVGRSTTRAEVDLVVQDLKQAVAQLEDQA
B2: Serine/threonine-protein kinase PAK 5 (Homo sapiens), Q9P286 (parent)
chain: MFGKKKKKIEISGPSNFEHRVHTGFDPQEQKFTGLPQQWHSLLADTANRPKPMVDPSCITPIQLAPMKTIVRGNKPCKETSINGLLEDFDNISVTRSNSLRKESPPTPDQGASSHGPGHAEENGFITFSQYSSESDTTADYTTEKYREKSLYGDDLDPYYRGSHAAKQNGHVMKMKHGEAYYSEVKPLKSDFARFSADYHSHLDSLSKPSEYSDLKWEYQRASSSSPLDYSFQFTPSRTAGTSGCSKESLAYSESEWGPSLDDYDRRPKSSYLNQTSPQPTMRQRSRSGSGLQEPMMPFGASAFKTHPQGHSYNSYTYPRLSEPTMCIPKVDYDRAQMVLSPPLSGSDTYPRGPAKLPQSQSKSGYSSSSHQYPSGYHKATLYHHPSLQSSSQYISTASYLSSLSLSSSTYPPPSWGSSSDQQPSRVSHEQFRAALQLVVSPGDPREYLANFIKIGEGSTGIVCIATEKHTGKQVAVKKMDLRKQQRRELLFNEVVIMRDYHHDNVVDMYSSYLVGDELWVVMEFLEGGALTDIVTHTRMNEEQIATVCLSVLRALSYLHNQGVIHRDIKSDSILLTSDGRIKLSDFGFCAQVSKEVPKRKSLVGTPYWMAPEVISRLPYGTEVDIWSLGIMVIEMIDGEPPYFNEPPLQAMRRIRDSLPPRVKDLHKVSSVLRGFLDLMLVREPSQRATAQELLGHPFLKLAGPPSCIVPLMRQYRHH
partner: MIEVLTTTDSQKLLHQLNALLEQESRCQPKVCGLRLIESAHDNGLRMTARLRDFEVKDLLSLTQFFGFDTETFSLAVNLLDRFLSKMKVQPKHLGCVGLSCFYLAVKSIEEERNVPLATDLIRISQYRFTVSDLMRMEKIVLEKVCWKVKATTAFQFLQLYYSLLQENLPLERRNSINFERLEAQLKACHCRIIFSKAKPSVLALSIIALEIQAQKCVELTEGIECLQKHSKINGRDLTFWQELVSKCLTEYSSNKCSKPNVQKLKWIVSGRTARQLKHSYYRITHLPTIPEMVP
B3: Transcription factor 19 (Homo sapiens), Q9Y242 (parent)
chain: MLPCFQLLRIGGGRGGDLYTFHPPAGAGCTYRLGHRADLCDVALRPQQEPGLISGIHAELHAEPRGDDWRVSLEDHSSQGTLVNNVRLPRGHRLELSDGDLLTFGPEGPPGTSPSEFYFMFQQVRVKPQDFAAITIPRSRGEARVGAGFRPMLPSQGAPQRPLSTFSPAPKATLILNSIGSLSKLRPQPLTFSPSWGGPKSLPVPAPPGEMGTTPSAPPQRNRRKSVHRVLAELDDESEPPENPPPVLMEPRKKLRVDKAPLTPTGNRRGRPRKYPVSAPMAPPAVGGGEPCAAPCCCLPQEETVAWVQCDGCDVWFHVACVGCSIQAAREADFRCPGCRAGIQT
partner: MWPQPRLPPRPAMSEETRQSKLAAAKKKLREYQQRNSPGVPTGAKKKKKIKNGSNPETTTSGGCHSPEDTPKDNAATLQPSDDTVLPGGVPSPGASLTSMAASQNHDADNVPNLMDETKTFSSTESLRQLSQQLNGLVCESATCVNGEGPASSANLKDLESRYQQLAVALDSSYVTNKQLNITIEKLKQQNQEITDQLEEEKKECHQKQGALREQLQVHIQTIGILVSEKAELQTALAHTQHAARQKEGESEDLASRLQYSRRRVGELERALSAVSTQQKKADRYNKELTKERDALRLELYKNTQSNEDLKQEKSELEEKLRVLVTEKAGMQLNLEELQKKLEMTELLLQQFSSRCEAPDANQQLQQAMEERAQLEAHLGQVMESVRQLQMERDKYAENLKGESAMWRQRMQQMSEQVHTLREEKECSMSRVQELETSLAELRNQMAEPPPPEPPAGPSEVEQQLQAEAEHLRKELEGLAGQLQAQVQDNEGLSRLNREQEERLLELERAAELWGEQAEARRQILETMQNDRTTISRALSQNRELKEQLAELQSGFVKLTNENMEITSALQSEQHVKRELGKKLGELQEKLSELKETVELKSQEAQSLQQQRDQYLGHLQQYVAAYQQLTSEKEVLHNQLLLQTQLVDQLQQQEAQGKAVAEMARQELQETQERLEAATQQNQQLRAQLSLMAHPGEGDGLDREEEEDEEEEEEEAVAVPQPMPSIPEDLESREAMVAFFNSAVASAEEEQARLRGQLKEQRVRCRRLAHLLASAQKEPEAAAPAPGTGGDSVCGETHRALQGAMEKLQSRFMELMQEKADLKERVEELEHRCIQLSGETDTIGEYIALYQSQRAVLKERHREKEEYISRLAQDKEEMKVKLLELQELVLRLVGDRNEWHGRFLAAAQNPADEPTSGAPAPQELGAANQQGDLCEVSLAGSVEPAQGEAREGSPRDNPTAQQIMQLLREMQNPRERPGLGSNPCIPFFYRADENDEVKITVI
B4: Notch homolog 2 N-terminal-like protein A (Homo sapiens), Q7Z3S9 (parent)
chain: MCVTYHNGTGYCKCPEGFLGEYCQHRDPCEKNRCQNGGTCVAQAMLGKATCRCASGFTGEDCQYSTSHPCFVSRPCLNGGTCHMLSRDTYECTCQVGFTGKECQWTDACLSHPCANGSTCTTVANQFSCKCLTGFTGQKCETDVNECDIPGHCQHGGTCLNLPGSYQCQCLQGFTGQYCDSLYVPCAPSPCVNGGTCRQTGDFTFECNCLPETVRRGTELWERDREVWNGKEHDEN
partner: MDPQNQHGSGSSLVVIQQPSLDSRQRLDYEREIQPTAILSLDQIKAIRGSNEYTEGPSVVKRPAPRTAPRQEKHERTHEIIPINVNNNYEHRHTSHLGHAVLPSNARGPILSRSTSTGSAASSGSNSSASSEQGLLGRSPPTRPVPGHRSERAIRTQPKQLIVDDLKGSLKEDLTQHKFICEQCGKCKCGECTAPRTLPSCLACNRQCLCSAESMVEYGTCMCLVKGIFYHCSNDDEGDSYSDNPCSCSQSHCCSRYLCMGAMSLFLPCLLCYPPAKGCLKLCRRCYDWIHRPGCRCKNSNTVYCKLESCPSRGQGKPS

The variants in one experiment derive from B1. As to conditions: with scly_human SCLY.
As for S198P, the “effect of a mutation on the interaction” value is on record as “with no effect”.

In the next experiment the parent is B2. As to conditions: with ccng1_human CCNG1, P51959.
As for V604I, the “effect of a mutation on the interaction” value is listed as “with no effect”.
The same measure, in the same setting: the result for S511N reads “with no effect”; that for R335P, “with no effect”.

A further experiment covers variants of B3. As to conditions: with goga2_human GOLGA2, Q08379.
Consider A279V, for which the “effect of a mutation on the interaction” value was “with no effect”.

The variants in another experiment derive from B4. The following applies: with spy1_human SPRY1, O43609.
R74Q: the “effect of a mutation on the interaction” value was “with no effect”.

Values taken from IntAct's records for PubMed 31515488.
